Results on two molecules are retold here after US6492344B1, “Syndecan enhancer element and syndecan stimulation of cellular differentiation” (Biotie Therapies Corp., priority 1993, dated 2002).

For experiment [1], the system named is FGF-inducible Response Element (FiRE). Briefly: pFiRE CAT reporter activation by growth factors in 3T3NIH cells. It is filed as cell-based, mouse. The note with it: pFiRE transfected 3T3NIH cells; 10 ng/ml growth factor (2 ng/ml TGF-β) or 5% FCS, 2 days. On the procedure:
Each of these plasmids was transiently transfected into 3T3NIH cells, using the calcium phosphate precipitation method (Chen and Okayama, Mol. Cell Biol. 7:2745-2752 (1987)) as follows. For transient transfections NIH3T3 cells were plated at equal density on six-well plates (Falcon) two days before transfection. Plasmid DNA was transfected into cells by calcium phosphate method (Chen and Okayama, Mol. Cell Biol. 7:2745-2752 (1987)). A β-galactosidase expressing plasmid (pSV-β-galactosidase, Promega) was co-transfected with CAT constructs to monitor transfection efficiencies. Three parallel transfections were used in every assay. […] CAT activities were measured by liquid scintillation and β-galactosidase activities spectrophotometrically at 420 nm as described by Vihinen et al., J. Biol. Chem 268:17261-17269 (1993)). […]
For the gene expression analysis the fragments of the syndecan-1 upstream region were subcloned from mouse genomic clones into the XbaI site of the pCATProm vector in which a mouse syndecan-1 promoter region (−1310 to +140) was fused to the CAT reporter gene (Vihinen et al., J. Biol. Chem. 271:12532-12541 (1996)). […] These constructs were then used to transient transfect NIH3T3 cells as described supra, and CAT activity was measured.
Effect of Various Growth Factors on Enhancer Activation in NIH3T3 Cells. […] Radioactivity was measured using a gamma counter (Wallac).

The subject of a further experiment is 3T3NIH cells. Briefly: 125-IdU incorporation (DNA synthesis) assay in 3T3NIH cells. Particulars: pFiRE transfected 3T3NIH cells; 10 ng/ml growth factor (2 ng/ml TGF-β) or 5% FCS. It is filed as cell-based, mouse. The text has this:
Effect of Various Growth Factors on Enhancer Activation in NIH3T3 Cells. Plasmid pFiRE was transfected into 3T3NIH cells as described, supra. The cells were starved in DMEM medium supplemented with 5% fetal calf serum to about 70% confluence. Fetal calf serum was then replaced with 2% carboxy-methyl-Sephadex eluted fetal calf serum (CMS) 12 hrs before adding the growth factors. Various growth factors in the same medium, 5% fetal calf serum (FCS) supplemented medium or a control containing the medium, without any added growth factors were incubated with the transfected cells for 2 days, and CAT activity was measured. The effect of 10 ng/ml of FGF-2, FGF-1, FGF-4, FGF-7 (KGF), EGF, IGF1, TGFα, IFNγ, and PDGF and 2 ng/ml TGF-β were tested. The human recombinant growth factors were purchased from Peprotech (FGF-1, -2, and -7), Boehringer (FGF-2) or from Calbiochem (PDGF) TGF-β was purchased from Sigma. The effect of the added growth factors and FCS on DNA synthesis was also tested by a 125-IdU incorporation assay. This cell proliferation assay was carried out by incubating cells for 4-6 hrs with 0.25 μCi/ml 5-[^125I]iodo-2′-deoxyuridine (IdU, Amersham), washed several times with PBS and solubilized in 1 M NaOH. Radioactivity was measured using a gamma counter (Wallac).

In the next experiment the test system is syndecan-1 mRNA. Briefly: Syndecan-1 mRNA expression in MCA3D keratinocytes. It is filed as cell-based. The note with it: MCA3D mouse keratinocytes.
Experiment [2] has as its system FGF-inducible Response Element (FiRE). Nature of the experiment: FiRE / Syn Prom CAT reporter in MCA3D keratinocytes. It is filed as cell-based. Particulars: MCA3D mouse keratinocytes transfected with FiRE construct. On the procedure: The cells used for proximal promoter constructs were 3T3 NIH, S115 (either hormone-treated or not) and nMuMG cells. For enhancer constructs we used 3T3 NIH cells grown in 2% CMS medium and MCA 3D cells grown in Ham's medium. 3T3 NIH cells were also used to test the effect of growth factors in 2% CMS medium with 10 ng/ml FGF-2 and 2ng/ml TGFβ-1. MCA 3D cells were used to test the effect of 10 ng/ml KGF.
FiRE is Induced Selectively by FGF-7 in Keratinocytes. The ability of FiRE to enhance transcription was tested in the mouse keratinocyte cell line MCA3D (Kuliz-Martin et al., Carcinogenesis 4:1367-1377 (1983)). MCA3D cells were transfected as described supra for mouse NIH3T3 cells. Following transfection, the cells were treated with fetal calf serum, PDGF, FGF-1, FGF-2, and FGF-7 as described supra for the NIH3T3 cells.

Entries after “also recorded” stand apart in the source; their conditions may differ.

B1: FGF-4: growth factor, FGF family member (protein, UniProt P08620 31-206, looked up)
Fibroblast growth factor 4: APTAPNGTLEAELERRWESLVALSLARLPVAAQPKEAAVQSGAGDYLLGIKRLRRLYCNVGIGFHLQALPDGRIGGAHADTRDSLLELSPVERGVVSIFGVASRFFVAMSSKGKLYGSPFFTDECTFKEILLPNNYNAYESYKYPGMFIALSKNGKTKKGNRVSPTMKVTHFLPRL
As to B1, the “FiRE enhancer activation (CAT reporter activity)” value in experiment [1] is reported as “lower effect”.

B2: FGF-7: Keratinocyte growth factor (FGF-7 or KGF) (protein, UniProt P21781 32-194, looked up)
Fibroblast growth factor 7: CNDMTPEQMATNVNCSSPERHTRSYDYMEGGDIRVRRLFCRTQWYLRIDKRGKVKGTQEMKNNYNIMEIRTVAVGIVAIKGVESEFYLAMNKEGKLYAKKECNEDCNFKELILENHYNTYASAKWTHNGGEMFVALNQKGIPVRGKKTKKEQKTAHFLPMAIT
Consider B2, for which the “DNA synthesis / cell proliferation (125-IdU incorporation)” value in the experiment with 3T3NIH cells was “significant increase in DNA synthesis”. In addition, the “syndecan-1 mRNA expression” value with syndecan-1 mRNA is “strongly induced”. The FiRE activation entry in experiment [2] is recorded as “strongly activated FiRE”. The “FiRE enhancer activation (CAT reporter activity)” value in experiment [1] is listed as “did not activate the enhancer; also recorded: no significant enhancer activation; also recorded: no effect”.
